# Measurements as given in patent publication US20200317768A1 (published 2020).
# B1: M103205H795-MY462/M103202L889-SK1 (antibody, human IgG1, kappa)
# heavy: QVTLKESGPVLVKPTETLTLTCTVSGIDLSHDDISWVRQAPGKGLEWVGIISYAGSTYYASWAKGRLTISKDTSKNQVVLTMTNMDPVDTATYYCARGVPAYSHGGDLWGQGTLVTVSSASTKGPSVFPLAPSSKSTSGGTAALGCLVKDYFPEPVTVSWNSGALTSGVHTFPAVLQSSGLYSLSSVVTVPSSSLGTQTYICNVNHKPSNTKVDKKVEPKSCDKTHTCPPCPGPELLTGPSVFLFPPKPKDTLMISRTPEVTCVVVDVSDEDPEVKFNWYVDGVEVHNAKTKPREEQYNSTYRVVSVLTVLHQDWLNGKEYKCKVSNKALPKPIEKTISKAKGQPREPQVYTLPPSREEMTKNQVSLTCLVKGFYPSDIAVEWESNGQPENNYKTTPPVLDSDGSFFLYSKLTVDKSRWQQGNVFSCSVMHEALHNHYTQKSLSLSP
# light: DIVMTQSPATLSLSPGERATLSCTSSQSVYHANWLSWFQQKPGQPPKLLIYWASTLAYGVPSRFSGSGSGTDFTLTISSLQPEDAATYYCAGGYGGGRYAFGQGTKVEIKRTVAAPSVFIFPPSDEQLKSGTASVVCLLNNFYPREAKVQWKVDNALQSGNSQESVTEQDSKDSTYSLSSTLTLSKADYEKHKVYACEVTHQGLSSPVTKSFNRGEC
# notes: copies: 2 + 2
# B2: M103205H795-MY465/M103202L889-SK1 (antibody, human IgG1, kappa)
# heavy: QVTLKESGPVLVKPTETLTLTCTVSGIDLSHDDISWVRQAPGKGLEWVGIISYAGSTYYASWAKGRLTISKDTSKNQVVLTMTNMDPVDTATYYCARGVPAYSHGGDLWGQGTLVTVSSASTKGPSVFPLAPSSKSTSGGTAALGCLVKDYFPEPVTVSWNSGALTSGVHTFPAVLQSSGLYSLSSVVTVPSSSLGTQTYICNVNHKPSNTKVDKKVEPKSCDKTHTCPPCPKPELLTGPSVFLFPPKPKDTLMISRTPEVTCVVVDVSDEDPEVKFNWYVDGVEVHNAKTKPREEQYNSTYRVVSVLTVLHQDWLNGKEYKCKVSNKALPKPIEKTISKAKGQPREPQVYTLPPSREEMTKNQVSLTCLVKGFYPSDIAVEWESNGQPENNYKTTPPVLDSDGSFFLYSKLTVDKSRWQQGNVFSCSVMHEALHNHYTQKSLSLSP
# light: DIVMTQSPATLSLSPGERATLSCTSSQSVYHANWLSWFQQKPGQPPKLLIYWASTLAYGVPSRFSGSGSGTDFTLTISSLQPEDAATYYCAGGYGGGRYAFGQGTKVEIKRTVAAPSVFIFPPSDEQLKSGTASVVCLLNNFYPREAKVQWKVDNALQSGNSQESVTEQDSKDSTYSLSSTLTLSKADYEKHKVYACEVTHQGLSSPVTKSFNRGEC
# notes: copies: 2 + 2
# B3: M103205H795-MY464/M103202L889-SK1 (antibody, human IgG1, kappa)
# heavy: QVTLKESGPVLVKPTETLTLTCTVSGIDLSHDDISWVRQAPGKGLEWVGIISYAGSTYYASWAKGRLTISKDTSKNQVVLTMTNMDPVDTATYYCARGVPAYSHGGDLWGQGTLVTVSSASTKGPSVFPLAPSSKSTSGGTAALGCLVKDYFPEPVTVSWNSGALTSGVHTFPAVLQSSGLYSLSSVVTVPSSSLGTQTYICNVNHKPSNTKVDKKVEPKSCDKTHTCPPCPIPELLTGPSVFLFPPKPKDTLMISRTPEVTCVVVDVSDEDPEVKFNWYVDGVEVHNAKTKPREEQYNSTYRVVSVLTVLHQDWLNGKEYKCKVSNKALPKPIEKTISKAKGQPREPQVYTLPPSREEMTKNQVSLTCLVKGFYPSDIAVEWESNGQPENNYKTTPPVLDSDGSFFLYSKLTVDKSRWQQGNVFSCSVMHEALHNHYTQKSLSLSP
# light: DIVMTQSPATLSLSPGERATLSCTSSQSVYHANWLSWFQQKPGQPPKLLIYWASTLAYGVPSRFSGSGSGTDFTLTISSLQPEDAATYYCAGGYGGGRYAFGQGTKVEIKRTVAAPSVFIFPPSDEQLKSGTASVVCLLNNFYPREAKVQWKVDNALQSGNSQESVTEQDSKDSTYSLSSTLTLSKADYEKHKVYACEVTHQGLSSPVTKSFNRGEC
# notes: copies: 2 + 2
# B4: M103205H795-MY463/M103202L889-SK1 (antibody, human IgG1, kappa)
# heavy: QVTLKESGPVLVKPTETLTLTCTVSGIDLSHDDISWVRQAPGKGLEWVGIISYAGSTYYASWAKGRLTISKDTSKNQVVLTMTNMDPVDTATYYCARGVPAYSHGGDLWGQGTLVTVSSASTKGPSVFPLAPSSKSTSGGTAALGCLVKDYFPEPVTVSWNSGALTSGVHTFPAVLQSSGLYSLSSVVTVPSSSLGTQTYICNVNHKPSNTKVDKKVEPKSCDKTHTCPPCPHPELLTGPSVFLFPPKPKDTLMISRTPEVTCVVVDVSDEDPEVKFNWYVDGVEVHNAKTKPREEQYNSTYRVVSVLTVLHQDWLNGKEYKCKVSNKALPKPIEKTISKAKGQPREPQVYTLPPSREEMTKNQVSLTCLVKGFYPSDIAVEWESNGQPENNYKTTPPVLDSDGSFFLYSKLTVDKSRWQQGNVFSCSVMHEALHNHYTQKSLSLSP
# light: DIVMTQSPATLSLSPGERATLSCTSSQSVYHANWLSWFQQKPGQPPKLLIYWASTLAYGVPSRFSGSGSGTDFTLTISSLQPEDAATYYCAGGYGGGRYAFGQGTKVEIKRTVAAPSVFIFPPSDEQLKSGTASVVCLLNNFYPREAKVQWKVDNALQSGNSQESVTEQDSKDSTYSLSSTLTLSKADYEKHKVYACEVTHQGLSSPVTKSFNRGEC
# notes: copies: 2 + 2
# How the values were obtained:
# [1] = biological target: T1, cynomolgus monkey FcγRIIa3 extracellular domain, His-tagged (cynomolgus monkey); experiment: SPR (BIACORE), captured antibody, FcgR as analyte
# T1 construct: also called cyno FcγRIIa3; cynoFcgRIIa3; not shown: C-terminal His-tag
# T1 chain: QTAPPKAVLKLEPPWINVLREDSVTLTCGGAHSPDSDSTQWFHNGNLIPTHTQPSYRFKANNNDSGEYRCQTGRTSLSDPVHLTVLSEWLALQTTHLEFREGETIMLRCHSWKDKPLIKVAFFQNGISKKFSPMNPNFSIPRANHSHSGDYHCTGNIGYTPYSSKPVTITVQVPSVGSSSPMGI
# [2] = biological target: T1, cynomolgus monkey FcγRIIa3 …; experiment: SPR (BIACORE); KD of SG1 divided by KD of variant;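 also: relative to parent M103205H795-SG1 carrying the SG1 human heavy chain constant region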
# Method: (§1) The kinetic analysis of interactions between these antibodies and FcγR was carried out using BIACORE® T200 or BIACORE® 4000 (GE Healthcare). HBS-EP+ (GE Healthcare) was used as the running buffer, and the measurement temperature was set to 25° C. A chip produced by immobilizing Protein A. Protein A/G or mouse anti-human IgG kappa light chain (BD Biosciences) onto a Series S Sensor Chip CM4 or CM5 (GE Healthcare) by the amine-coupling method was used. […] After the measurement, the antibody captured on the chip was washed off by allowing reaction with 10 mM glycine-HCl, pH1.5 and 25 mM NaOH so that the chip was regenerated and used repeatedly. The sensorgrams obtained as measurement results were analyzed by the 1:1 Langmuir binding model using the BIACORE® Evaluation Software to calculate the binding rate constant ka (L/mol/s) and dissociation rate constant kd (l/s), and the dissociation constant KD (mol/L) was calculated from these values. […] Regarding such interactions, KD values were calculated using the following 1:1 binding model described in BIACORE® T100 Software Handbook BR1006-48 Edition AE.
# [3] = biological target: T2, human FcγRIIaH extracellular domain, His-tagged (human, UniProt P12318 34-217); experiment: SPR (BIACORE); KD of SG1 divided by KD of variant;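 also: relative to parent M103205H795-SG1 carrying the SG1 human heavy chain constant region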
# T2 construct: also called human FcγRIIa (type H); FcgRIIaH; not shown: C-terminal His-tag
# T2 sequence: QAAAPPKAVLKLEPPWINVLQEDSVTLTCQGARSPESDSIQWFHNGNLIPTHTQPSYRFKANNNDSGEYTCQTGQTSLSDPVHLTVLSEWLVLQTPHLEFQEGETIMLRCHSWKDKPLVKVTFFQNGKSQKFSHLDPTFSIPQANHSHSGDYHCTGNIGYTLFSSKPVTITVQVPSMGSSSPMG
# Method: as §1
# [4] = biological target: T3, human FcγRIIb extracellular domain, His-tagged (human, UniProt P31994 43-217); experiment: SPR (BIACORE); KD of SG1 divided by KD of variant;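 also: relative to parent M103205H795-SG1 carrying the SG1 human heavy chain constant region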
# T3 construct: also called FcgRIIb (human); not shown: C-terminal His-tag
# T3 sequence: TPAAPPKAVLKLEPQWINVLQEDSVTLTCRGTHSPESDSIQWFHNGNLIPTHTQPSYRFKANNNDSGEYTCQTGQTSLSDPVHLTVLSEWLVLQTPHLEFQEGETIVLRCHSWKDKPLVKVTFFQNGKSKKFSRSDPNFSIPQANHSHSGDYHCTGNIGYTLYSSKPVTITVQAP
# Method: as §1
# [5] = biological target: T4, cynomolgus monkey FcγRIIa2 extracellular domain, His-tagged (cynomolgus monkey); experiment: SPR (BIACORE); KD of SG1 divided by KD of variant;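 also: relative to parent M103205H795-SG1 carrying the SG1 human heavy chain constant region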
# T4 construct: also called cyno FcγRIIa2; cynoFcgRIIa2; not shown: C-terminal His-tag
# T4 chain: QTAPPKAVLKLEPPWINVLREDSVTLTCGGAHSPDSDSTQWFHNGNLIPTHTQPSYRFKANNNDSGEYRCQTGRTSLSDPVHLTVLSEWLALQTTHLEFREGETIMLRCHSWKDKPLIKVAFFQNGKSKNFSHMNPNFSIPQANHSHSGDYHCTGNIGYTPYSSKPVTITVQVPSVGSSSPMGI
# Method: as §1
# [6] = biological target: T5, cynomolgus monkey FcγRIIIaS extracellular domain, His-tagged (cynomolgus monkey, UniProt Q8SPW2 21-206 at identity 1.00)); experiment: SPR (BIACORE); KD of SG1 divided by KD of variant
# T5 construct: also called cyno FcγRIIIaS; cynoFcγRIIIaS; not shown: C-terminal His-tag
# T5 chain: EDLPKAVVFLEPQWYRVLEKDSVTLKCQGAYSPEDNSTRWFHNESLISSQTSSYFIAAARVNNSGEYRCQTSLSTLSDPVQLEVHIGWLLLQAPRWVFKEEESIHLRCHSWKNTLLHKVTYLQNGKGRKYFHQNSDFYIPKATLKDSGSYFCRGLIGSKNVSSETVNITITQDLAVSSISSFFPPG
# Method: as §1
# [7] = biological target: T6, cynomolgus monkey FcγRIIb extracellular domain, His-tagged (cynomolgus monkey); experiment: SPR (BIACORE); KD of SG1 divided by KD of variant
# T6 construct: also called cyno FcγRIIb; cynoFcγRIIb; not shown: C-terminal His-tag
# T6 chain: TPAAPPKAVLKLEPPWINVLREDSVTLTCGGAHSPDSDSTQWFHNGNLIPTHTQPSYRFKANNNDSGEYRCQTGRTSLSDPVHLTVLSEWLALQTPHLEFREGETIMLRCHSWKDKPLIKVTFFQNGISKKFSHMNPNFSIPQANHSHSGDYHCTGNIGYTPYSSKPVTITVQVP
# Method: as §1
# [8] = biological target: T7, human FcγRIIIaV extracellular domain, His-tagged (human, UniProt P08637 17-208); experiment: SPR (BIACORE); KD of SG1 divided by KD of variant
# T7 construct: also called FcgRIIIaV; not shown: C-terminal His-tag
# T7 sequence (P08637 17-208 F176V): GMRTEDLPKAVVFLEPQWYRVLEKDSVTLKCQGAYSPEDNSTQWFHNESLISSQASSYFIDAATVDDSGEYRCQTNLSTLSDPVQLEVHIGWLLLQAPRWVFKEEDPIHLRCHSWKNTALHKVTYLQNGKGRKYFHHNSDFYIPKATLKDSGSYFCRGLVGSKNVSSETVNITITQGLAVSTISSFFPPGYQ
# Method: as §1
# [9] = biological target: T8, cynomolgus monkey FcγRIIa1 extracellular domain, His-tagged (cynomolgus monkey); experiment: SPR (BIACORE); KD of SG1 divided by KD of variant
# T8 construct: also called cyno FcγRIIa1; cynoFcgRIIa1; not shown: C-terminal His-tag
# T8 chain: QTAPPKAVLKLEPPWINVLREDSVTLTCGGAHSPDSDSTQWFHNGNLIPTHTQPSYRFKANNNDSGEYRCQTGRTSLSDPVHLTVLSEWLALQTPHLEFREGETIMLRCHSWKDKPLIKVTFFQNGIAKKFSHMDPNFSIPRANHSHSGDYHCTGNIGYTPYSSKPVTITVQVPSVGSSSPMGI
# Method: as §1
Kd [1],KD fold (SG1 = 1) [2],KD fold (SG1 = 1) [3],KD fold (SG1 = 1) [4],KD fold (SG1 = 1) [5],KD fold (SG1 = 1) [6],KD fold (SG1 = 1) [7],KD fold (SG1 = 1) [8],KD fold (SG1 = 1) [9],Binder
4.2 µM,4 fold,2.9 fold,2.4 fold,3.2 fold,0.2 fold,3.8 fold,0.3 fold,1.7 fold,B1
5.2 µM,3.3 fold,2.8 fold,1.6 fold,1.3 fold,0.2 fold,2.6 fold,0.1 fold,1.6 fold,B2
3.9 µM,4.4 fold,4.1 fold,2.9 fold,3.4 fold,0.2 fold,3.6 fold,0.2 fold,1.7 fold,B3
4.4 µM,3.9 fold,3.1 fold,2 fold,2.3 fold,0.2 fold,3.1 fold,0.2 fold,1.5 fold,B4
